Laboratory results from patent US20260151494A1 (ARO BIOTHERAPEUTICS, published 2026).

Tests used:
[1] = target: T1, human CD71 extracellular domain (CD71-ECD) (human, UniProt P02786 89-760); assay: primary ELISA, RLU ratio to HSA
T1 construct: also called hCD71; human CD71-ECD

[2] = target: T1, human CD71 extracellular domain …; assay: primary ELISA; further: test concentration or dose not given here

T1 sequence (P02786 89-760): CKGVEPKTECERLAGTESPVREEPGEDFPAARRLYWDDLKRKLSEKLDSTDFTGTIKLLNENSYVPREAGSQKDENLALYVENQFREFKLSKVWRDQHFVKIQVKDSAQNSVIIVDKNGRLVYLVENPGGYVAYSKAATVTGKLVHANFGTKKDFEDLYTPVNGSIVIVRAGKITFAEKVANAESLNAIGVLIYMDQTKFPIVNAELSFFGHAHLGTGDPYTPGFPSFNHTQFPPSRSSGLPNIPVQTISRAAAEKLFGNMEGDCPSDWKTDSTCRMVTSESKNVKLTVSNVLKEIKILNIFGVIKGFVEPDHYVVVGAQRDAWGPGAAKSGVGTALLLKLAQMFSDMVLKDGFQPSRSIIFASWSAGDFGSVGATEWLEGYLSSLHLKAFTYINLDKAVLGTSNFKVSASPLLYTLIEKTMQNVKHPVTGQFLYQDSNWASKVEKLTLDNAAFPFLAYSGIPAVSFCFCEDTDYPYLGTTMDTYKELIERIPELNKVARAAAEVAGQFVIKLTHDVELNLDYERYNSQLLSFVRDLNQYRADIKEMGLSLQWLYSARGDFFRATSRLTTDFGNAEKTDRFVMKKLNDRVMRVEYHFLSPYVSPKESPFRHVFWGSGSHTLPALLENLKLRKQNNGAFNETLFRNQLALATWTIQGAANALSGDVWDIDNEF

Binder	hCD71:HSA [1]	RLU [2]
CD71-binding FN3 domain SEQ ID NO: 257 (designed binder) MSLPAPKNLVVSHVTEDSARLSWTAPDAAFDSFEIGYWENAYKGEAIVLTVPGSERSYDLTGLKPGTEYVVFIGGVKGGVWSVPLSAIFTT	378	2.83e+06 RLU
CD71-binding FN3 domain SEQ ID NO: 284 (designed binder) MSLPAPKNLVVSRVTEDSARLSWTAPDAAFDSFEIGYWENAYKGEAIVLTVPGSERSYDLTGLKPGTEYMVFIGGVKGGVWSVPLSAIFTT	195	2.37e+06 RLU
CD71-binding FN3 domain SEQ ID NO: 286 (designed binder) MSLPAPKNLVVSRVTEDSARLSWTAPDAAFDSFEIVYAEPVRFGEAIVLTVPGSERSYDLTGLKPGTEYWVQIGGVKGGEWSSPLSAIFTT	131	2.66e+06 RLU
CD71-binding FN3 domain SEQ ID NO: 277 (designed binder) MSLPAPKNLVVSRVTEDSARLSWTAPDAAFDSFEIGYFELTYYGEAIVLTVPGSERSYDLTGLKPGTEYWVQIGGVKGGGFSEPLSAIFTT	276	4.13e+06 RLU
CD71-binding FN3 domain SEQ ID NO: 274 (designed binder) MSLPAPKNLVVSRVTEDSARLSWTAPDAAFDSFEIVYWEQVGVGEAIVLTVPGSERSYDLTGLKPGTEYWVQIGGVKGGGFSEPLSAIFTT	296	2.37e+06 RLU
CD71-binding FN3 domain SEQ ID NO: 280 (designed binder) MSLPAPKNLVVSRVTEDSARLSWTALDAAFDSFEIGYFENLYLGEAIVLTVPGSERSYDLTGLKPGTEYWVQIGGVKGGNWSAPLSAIFTT	103	3.21e+06 RLU
CD71-binding FN3 domain SEQ ID NO: 285 (designed binder) MSLPAPKNLVVSRVTEDSARLSWTATDAAFDSFEIGYWENAYKGEAIVLTVPGSERSYDLTGLKPGTEYVVFIGGVKGGVWSVPLSAIFTT	201	2.81e+06 RLU
CD71-binding FN3 domain SEQ ID NO: 278 (designed binder) MSLPAPKNLVVSRVTEDSARLSWTAPDAAFDSFEIGYFENLYLGEAIVLTVPGSERSHDLTGLKPGTEYWVQIGGVKGGNWSAPLSAIFTT	435	3.46e+06 RLU
CD71-binding FN3 domain SEQ ID NO: 289 (designed binder) MSLPAPKNLVVSRVTEDSARLSWTAPDAAFDSFEIAYFEIAWLGEAIVLTVPGSERSYDLTGLKPGTEYWVQIGGVKGGAYSTPLSAIFTT	77	3.57e+06 RLU
CD71-binding FN3 domain SEQ ID NO: 268 (designed binder) MSLPAPKNLVVSRVTEDSARLSWTAPDAAFDSFEIGYFENLYLGEAIVLTVPGSERSYDPTGLKPGTEYWVQIGGVKGGNWSAPLSAIFTT	133	4.1e+06 RLU
CD71-binding FN3 domain SEQ ID NO: 271 (designed binder) MSLPAPKNLVVSRITEDSARLSWTAPDAAFDSFEIGYWENAYKGEAIVLTVPGSERSYDLTGLKPGTEYVVFIGGVKGGVWSVPLSAIFTT	180	2.57e+06 RLU
CD71-binding FN3 domain SEQ ID NO: 282 (designed binder) MSLPAPKNLVVSRVTEDSARLSWTAPDAAFDSFDIGYFELTWYGEAIVLTVPGSERSYDLTGLKPGTEYWVSIGGVKGGRFSEPLYARFTT	240	3.2e+06 RLU
CD71-binding FN3 domain SEQ ID NO: 275 (designed binder) MSLPAPKNLVVSRVTEDSARLSWTAPDAAFDSFEIGYFENLYLGEAIVLTVPGSERSYDLTGLKPGTEYWVQIGGVKGGNWSAPLVAEFTT	322	3.4e+06 RLU
CD71-binding FN3 domain SEQ ID NO: 283 (designed binder) MSLPAPKNLVVSRVTEDSARLSWTAPDAAFDSFEIAYQELSLWGEAIVLTVPGSERSYDLTGLKPGTEYYVHIGGVKGGIWSSPLSAYSTT	77	2.07e+06 RLU
CD71-binding FN3 domain SEQ ID NO: 263 (designed binder) MSLPAPKNLVVSRVTEDSARLSWTAPDAAFDSFEIGYFENLYLGEAIVLTVPGSERSYDLTGLKPGTEYWVQIGGVKGGNWSSPLSAIFTT	208	3.32e+06 RLU
CD71-binding FN3 domain SEQ ID NO: 269 (designed binder) MSLPAPKNLVVSRVTEDSARLSWTAPDAAFDSFEIGYFENDYFGEAIVLTVPGSERSYDLTGLKPGTEYVVFIGGVKGGNWSAPLSAIFTT	348	4.35e+06 RLU
CD71-binding FN3 domain SEQ ID NO: 272 (designed binder) MSLPAPKNLVVSRVTEDSARLSWTAPDAAFDSFEIAYGEAAYDGEAIALLVPGSERSYDLTGLKPGTEYWVQIGGVKGGNWSAPLSAIFTT	289	2.83e+06 RLU
CD71-binding FN3 domain SEQ ID NO: 276 (designed binder) MSLPAPKNLVVSRVTEDSARLSWTAPDAAFDSFEIAYFELDYVGEAIVLTVPGSERSYDLTGLKPGTEYWVQIGGVKGGTWSGPLSAIFTI	62	3.13e+06 RLU

Next, values leading:

hCD71:HSA [1]	RLU [2]	Binder
127	3.55e+06 RLU	CD71-binding FN3 domain SEQ ID NO: 308 (designed binder) MSLPAPKNLVVSRVTEDSARMSWTTPDAAFDSFEIGYFENLYLGEAIVLTVPGSERSYDLTGLKPGTEYWVQIGGVKGGNWSAPLSAIFTT
287	3.57e+06 RLU	CD71-binding FN3 domain SEQ ID NO: 309 (designed binder) MSLPAPENLVVSRVTEDSARLSWTAPDAAFDSFEIGYFENLYLGEAIVLTVPGSERSYDLTGLKPGTEYWVQIGGVKGGNWSAPLSAIFTT
41	2.49e+06 RLU	CD71-binding FN3 domain SEQ ID NO: 315 (designed binder) MSLPAPKNLVVSRVTEDSARLSWTAPDAAFDSFEIGYFENLYLGEAIVLTVPGSERSYDLTGLKPGTEYWVQIGGVKGGNWSAPLSAISTT
287	3.67e+06 RLU	CD71-binding FN3 domain SEQ ID NO: 298 (designed binder) MSLPAPKNLVVSRVTEDSARLSWTAPDAAFDSFEIGYFENLYLGEAIVLTVPGSERSYDLTGLKPGTEYWVQIGGVKGDNWSAPLSAIFTT
375	3.26e+06 RLU	CD71-binding FN3 domain SEQ ID NO: 299 (designed binder) MSLPAPKNLVVSRVTEDSARLSWTAPDAAFDSFEIAYFENLYLGEAIVLTVPGSERSYDLTGLKPGTEYWVQIGGVKGGNWSAPLSAIFTT
301	3.03e+06 RLU	CD71-binding FN3 domain SEQ ID NO: 316 (designed binder) MSLPAPKNLVISRVTEDSARLSWTAPDAAFDSFEIGYFENLYLGEAIVLTVPGSERSYDLTGLKPGTEYWVQIGGVKGGNWSAPLSAIFTT
315	3.62e+06 RLU	CD71-binding FN3 domain SEQ ID NO: 305 (designed binder) MSLPAPKNLVVSRVTEDSARLSWTAPDAAFDSFEIAYFEQTYTGEAIVLTVPGSERSYDLTGLKPGTEYWVQIGGVKGGNWSAPLSAIFTT
152	3.19e+06 RLU	CD71-binding FN3 domain SEQ ID NO: 301 (designed binder) MSLPAPKNLVVSRVTEDSARLSWTTPDAAFDSFEIGYFENLYLGEAIVLTVPGSERSYDLTGLKPGTEYWVQIGGVKGGNWSAPLSAIFTT
99	3.39e+06 RLU	CD71-binding FN3 domain SEQ ID NO: 296 (designed binder) MSLPAPKNLVVSRVTEDSARLSWTAPDAAFDSFDIGYFELTWYGEAIVLTVPGSERSYDLTGLKPGTEYWVSIGGVKGGIWSSPLSAIFTT
512	2.64e+06 RLU	CD71-binding FN3 domain SEQ ID NO: 297 (designed binder) MSLPAPKNLVVSRVTEDSARLSWTAPDAAFDSFEISYFENTWYGEAIVLTVPGSERSYDLTGLKPGTEYSVRIFGVKGGNFSFPLSAIFTT
133	2.38e+06 RLU	CD71-binding FN3 domain SEQ ID NO: 311 (designed binder) MSLPAPKNLVVSRVTEDSARLSWTAPDAAFDSFEIGYWENAYKGEAIVLTVPGSERSYDLTGLKPGTEYVVFIGGVKGGSWSNPLSAIFTT
480	2.97e+06 RLU	CD71-binding FN3 domain SEQ ID NO: 313 (designed binder) MSLPAPKNLVVSRVTEDSARLSWTAPDAAFDSFEIAYFENDWAGEAIVLTIPGSERSYDLTGLKPGTEYWVQIGGVKGGNWSAPLSAIFTT
291	4.33e+06 RLU	CD71-binding FN3 domain SEQ ID NO: 292 (designed binder) MSLPAPKNLVVSRVTEDSARLSWTAPDAAFDSFEIGYWENAYKGEAIVLTVPGSERSYDLTGLKPGTEYVVFIGGVKGGVWSVSLSAIFTT
284	3.88e+06 RLU	CD71-binding FN3 domain SEQ ID NO: 300 (designed binder) MSLPAPKNLVVSRVTEDSARLSWTAPDAAFDSFEIGYFEATPNGEAIVLTVPGSERSYDLTGLKPGTEYKVFIGGVKGGRWSKPLSAIFTT
50	3.75e+06 RLU	CD71-binding FN3 domain SEQ ID NO: 307 (designed binder) MSLPAPKNLVVSRVTEDSARLSWTAPDAAFNSFEIGYFENLYLGEAIVLTVPGSERSYDLTGLKPGTEYWVQIGGVKGGTFSAPLSAIFTT
274	3.39e+06 RLU	CD71-binding FN3 domain SEQ ID NO: 304 (designed binder) MSLPAPKNLVVSRVTEDSARLSWTAPDAAFDSFEIGYFENLYLGEAIVLTVPGSERSYDLTGLKPGTEYVVFIGGVKGGVWSVPLSAIFTT
324	3.1e+06 RLU	CD71-binding FN3 domain SEQ ID NO: 312 (designed binder) MSLPAPKNLVVSRVTEDSARLSWTAPDAAFDSFEIGYFENLYLGEAIVLTIPGSERSYDLTGLKPGTEYWVQIGGVKGGNWSAPLSAIFTT
79	1.17e+06 RLU	CD71-binding FN3 domain SEQ ID NO: 306 (designed binder) MSLPAPKNLVVSRVTEDSARLSWTAPDAAFDSFEIGHFENLYLGEAIVLTVPGSERSYDLTGLKPGIEYWVQIGGVKGGVWSVSLSAIFTT
